Assay results as given in paper doi:10.1101/2020.11.27.401307.

Tests used:
LARP6C La-module [1] = molecular target: T1, LARP6C La-module (Arabidopsis thaliana, UniProt Q9LHL3 137-332); experiment: ITC
T1 sequence: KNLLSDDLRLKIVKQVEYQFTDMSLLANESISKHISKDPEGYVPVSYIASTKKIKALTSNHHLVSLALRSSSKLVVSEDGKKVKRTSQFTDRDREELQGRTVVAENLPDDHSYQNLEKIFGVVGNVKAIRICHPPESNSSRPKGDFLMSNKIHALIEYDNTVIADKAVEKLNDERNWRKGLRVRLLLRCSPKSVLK

LARP6C La-module [2] = molecular target: T1, LARP6C La-module; experiment: EMSA
LARP6C La-module [3] = molecular target: T1, LARP6C La-module; experiment: EMSA; remark: listed apart in the source
LARP6C La-module [4] = molecular target: T1, LARP6C La-module; experiment: EMSA; remark: listed apart in the source

Row | Binder | Kd (LARP6C La-module [1]) [µM] | Kd (LARP6C La-module [2]) [µM] | Kd (LARP6C La-module [3]) [µM] | binding result (LARP6C La-module [1]) | further results
1 | UCUCUCUGUUUCUUAUUCAUC (ssRNA) [B2] | 3.7 | 5.6 ± 0.2 | 1.9 ± 0.3 |  | 
2 | UUUUUUUUUUUUUUUUUUUU (ssRNA) [oligo(U20)] |  |  |  |  | binding result (LARP6C La-module [4]): binds
3 | CCUCUCCCCCCCUCCCCCCUC (ssRNA) [B3] |  |  |  | no binding | 
4 | AAAAAAGAAGAAAAA (ssRNA) [A1] |  |  |  | no binding | 
5 | GAGAGAGGAGAAGAA (ssRNA) [A2] |  |  |  | no binding | 
6 | CUUCUUUCUUUCUUUUUUGUU (ssRNA) [B1] | 2.8 | 3.5 ± 0.3 | 0.8 ± 0.1 |  | 
